Source: patent US20240052042A1 (Novartis, published 2024)

Tests used:
[1] = biological target: T1, human NPR1 on CHO-K1 cells (human, UniProt P16066 33-1061); assay: cell-based or functional assay
T1 sequence: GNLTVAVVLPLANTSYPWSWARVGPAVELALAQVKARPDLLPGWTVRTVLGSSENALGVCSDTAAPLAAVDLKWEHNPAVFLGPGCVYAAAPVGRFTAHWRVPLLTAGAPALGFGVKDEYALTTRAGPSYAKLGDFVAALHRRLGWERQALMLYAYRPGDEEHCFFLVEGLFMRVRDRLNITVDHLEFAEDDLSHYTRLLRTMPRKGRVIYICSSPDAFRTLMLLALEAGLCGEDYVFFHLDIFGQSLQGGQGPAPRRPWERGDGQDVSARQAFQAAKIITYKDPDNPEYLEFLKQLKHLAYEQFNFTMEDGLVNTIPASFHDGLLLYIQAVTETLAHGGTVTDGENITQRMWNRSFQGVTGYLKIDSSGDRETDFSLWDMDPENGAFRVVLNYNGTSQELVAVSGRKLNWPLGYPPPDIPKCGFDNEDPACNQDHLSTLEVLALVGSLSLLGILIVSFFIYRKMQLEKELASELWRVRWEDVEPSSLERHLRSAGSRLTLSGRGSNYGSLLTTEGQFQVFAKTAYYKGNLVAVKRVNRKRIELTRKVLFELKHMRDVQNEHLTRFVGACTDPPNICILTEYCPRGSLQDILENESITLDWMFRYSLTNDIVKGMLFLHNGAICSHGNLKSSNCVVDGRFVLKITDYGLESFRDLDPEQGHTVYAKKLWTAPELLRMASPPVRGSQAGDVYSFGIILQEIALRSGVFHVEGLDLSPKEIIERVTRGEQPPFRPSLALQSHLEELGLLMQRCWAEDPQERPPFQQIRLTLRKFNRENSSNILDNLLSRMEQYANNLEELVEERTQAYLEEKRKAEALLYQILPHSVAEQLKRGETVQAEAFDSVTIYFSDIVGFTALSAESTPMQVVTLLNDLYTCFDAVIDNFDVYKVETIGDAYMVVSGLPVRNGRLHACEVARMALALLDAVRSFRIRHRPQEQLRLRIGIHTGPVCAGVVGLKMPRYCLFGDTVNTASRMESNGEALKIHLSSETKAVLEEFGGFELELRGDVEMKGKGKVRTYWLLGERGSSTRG

rNPR1-ANP complex [2] = biological target: T2, rNPR1-ANP complex (rat, UniProt P01160 124-151 (human entry), limits assumed); assay: FabCys affinity (Biacore per paragraph 323)
T2 construct: rNPR1 antigen in the presence of ANP; also called rNPR1 + 100 nM ANP
T2 sequence: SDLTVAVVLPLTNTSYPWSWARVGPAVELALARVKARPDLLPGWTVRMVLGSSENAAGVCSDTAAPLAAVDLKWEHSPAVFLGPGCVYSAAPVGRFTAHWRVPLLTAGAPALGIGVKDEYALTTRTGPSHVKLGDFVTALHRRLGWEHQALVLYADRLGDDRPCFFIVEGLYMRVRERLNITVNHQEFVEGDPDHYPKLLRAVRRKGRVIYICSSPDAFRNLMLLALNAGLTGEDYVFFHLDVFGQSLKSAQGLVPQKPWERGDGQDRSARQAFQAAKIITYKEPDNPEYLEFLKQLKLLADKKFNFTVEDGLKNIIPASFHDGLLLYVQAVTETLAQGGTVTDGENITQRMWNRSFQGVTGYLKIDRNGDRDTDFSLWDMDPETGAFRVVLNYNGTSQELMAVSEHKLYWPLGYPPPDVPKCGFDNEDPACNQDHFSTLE
T2 sequence (peptide): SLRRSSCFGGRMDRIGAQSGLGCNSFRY

hNPR1-ANP complex [3] = biological target: T3, hNPR1-ANP complex (human, UniProt P01160 124-151, limits assumed); assay: FabCys affinity (Biacore per paragraph 323)
T3 construct: hNPR1 antigen in the presence of ANP; also called hNPR1 + 100 nM ANP
T3 sequence: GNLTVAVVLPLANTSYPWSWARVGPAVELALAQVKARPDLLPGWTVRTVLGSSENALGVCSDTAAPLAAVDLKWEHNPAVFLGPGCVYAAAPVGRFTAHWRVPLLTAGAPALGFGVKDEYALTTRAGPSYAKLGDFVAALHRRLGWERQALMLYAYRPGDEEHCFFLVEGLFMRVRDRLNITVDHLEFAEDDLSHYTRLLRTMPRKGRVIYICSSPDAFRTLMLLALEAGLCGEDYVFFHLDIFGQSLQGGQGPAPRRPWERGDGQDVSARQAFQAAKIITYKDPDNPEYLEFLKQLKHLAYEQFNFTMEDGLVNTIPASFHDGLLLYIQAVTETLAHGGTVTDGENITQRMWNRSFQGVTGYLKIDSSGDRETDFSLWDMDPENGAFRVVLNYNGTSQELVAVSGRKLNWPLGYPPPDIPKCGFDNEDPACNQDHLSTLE
T3 sequence (peptide): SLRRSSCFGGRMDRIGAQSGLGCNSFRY

rNPR1-ANP complex [4] = biological target: T2, rNPR1-ANP complex; assay: FabCys, parental value by Biacore, as in Table 5
hNPR1-ANP complex [5] = biological target: T3, hNPR1-ANP complex; assay: FabCys, parental value by Biacore, as in Table 5
rNPR1-ANP complex [6] = biological target: T2, rNPR1-ANP complex; assay: FabCys affinity determination
rat NPR1 (rNPR1) [7] = biological target: T4, rat NPR1 (rNPR1) (rat, UniProt P18910 29-469, limits assumed); assay: FabCys affinity determination
T4 construct: Soluble antigen
T4 sequence: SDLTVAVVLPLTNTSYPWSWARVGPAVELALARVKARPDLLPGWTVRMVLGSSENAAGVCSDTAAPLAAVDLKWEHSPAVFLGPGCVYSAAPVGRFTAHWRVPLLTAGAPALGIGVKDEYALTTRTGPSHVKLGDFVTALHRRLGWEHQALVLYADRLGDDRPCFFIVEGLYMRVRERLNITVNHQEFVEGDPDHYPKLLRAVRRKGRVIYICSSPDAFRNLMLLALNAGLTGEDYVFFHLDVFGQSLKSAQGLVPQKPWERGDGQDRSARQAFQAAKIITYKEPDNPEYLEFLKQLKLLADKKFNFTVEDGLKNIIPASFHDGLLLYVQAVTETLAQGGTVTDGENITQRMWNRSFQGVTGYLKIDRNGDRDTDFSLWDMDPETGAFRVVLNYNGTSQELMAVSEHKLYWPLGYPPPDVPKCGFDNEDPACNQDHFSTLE

hNPR1-ANP complex [8] = biological target: T3, hNPR1-ANP complex; assay: FabCys affinity determination
[9] = biological target: T5, human Natriuretic Peptide Receptor 1 (hNPR1) (human, UniProt P16066 33-473, limits assumed); assay: FabCys affinity determination
T5 construct: pannings used NPR1-hFc; also called NPR1-hFc
T5 sequence: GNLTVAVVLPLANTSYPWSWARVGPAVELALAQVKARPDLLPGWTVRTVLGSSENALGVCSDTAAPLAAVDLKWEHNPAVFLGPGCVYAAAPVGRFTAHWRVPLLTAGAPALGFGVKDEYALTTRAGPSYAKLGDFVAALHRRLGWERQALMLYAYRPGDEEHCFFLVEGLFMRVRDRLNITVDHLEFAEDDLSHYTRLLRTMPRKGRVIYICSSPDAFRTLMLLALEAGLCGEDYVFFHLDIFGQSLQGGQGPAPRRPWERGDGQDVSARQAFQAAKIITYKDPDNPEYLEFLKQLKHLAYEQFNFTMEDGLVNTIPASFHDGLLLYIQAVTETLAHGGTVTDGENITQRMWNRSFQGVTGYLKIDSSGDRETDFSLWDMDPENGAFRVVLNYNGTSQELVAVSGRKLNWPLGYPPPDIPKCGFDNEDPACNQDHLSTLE

rNPR1-ANP complex [10] = biological target: T2, rNPR1-ANP complex; assay: SET, FabCys
rat NPR1 (rNPR1) [11] = biological target: T4, rat NPR1 (rNPR1); assay: SET, FabCys
hNPR1-ANP complex [12] = biological target: T3, hNPR1-ANP complex; assay: SET, FabCys
[13] = biological target: T5, human Natriuretic Peptide Receptor 1 …; assay: SET, FabCys
rNPR1-ANP complex [14] = biological target: T2, rNPR1-ANP complex; assay: Octet, FabCys
rat NPR1 (rNPR1) [15] = biological target: T4, rat NPR1 (rNPR1); assay: Octet, FabCys
hNPR1-ANP complex [16] = biological target: T3, hNPR1-ANP complex; assay: Octet, FabCys
rNPR1-ANP complex [17] = biological target: T2, rNPR1-ANP complex; assay: FabCys, parental value by Octet (table comment), as in Table 14
hNPR1-ANP complex [18] = biological target: T3, hNPR1-ANP complex; assay: as above
[19] = biological target: T5, human Natriuretic Peptide Receptor 1 …; assay: as above
[20] = biological target: T1, human NPR1 on CHO-K1 cells; assay: cell-based or functional assay; remark: listed apart in the source
rNPR1-ANP complex [21] = biological target: T2, rNPR1-ANP complex; assay: FabCys affinity (Octet per Table 18 comment)
hNPR1-ANP complex [22] = biological target: T3, hNPR1-ANP complex; assay: FabCys affinity (Octet per Table 18 comment)
[23] = biological target: T5, human Natriuretic Peptide Receptor 1 …; assay: FabCys affinity (Octet per Table 18 comment)

B1: WW01 (FabCys format) (Fab, V domains shown)
VH: QVQLLESGGGLVQPGGSLRLSCAASGFTFNTHYIHWVRQAPGKGLEWVSSISGSGSNTYYADSVKGRFTISRDNSKNTLYLQMNSLRAEDTAVYYCARERGYVYYHMFDPWGQGTLVTVSS
VL: DIVLTQSPATLSLSPGERATLSCRASQSITRNYLAWYQQKPGQAPRLLIYGASSRATGIPARFSGSGSGTDFTLTISSLEPEDFAVYYCQQHSMYPRTFGQGTKVEIK
notes: Monovalent disulfide-bridged FabCys
cGMP conc [nM] at 2 µM FabCys, +0.075 nM ANP [1]: 121 nM | cGMP conc [nM] at 2 µM FabCys, without ANP [1]: 30 nM | Kd (rNPR1-ANP complex [2]): 2 nM | Kd (hNPR1-ANP complex [3]): 1.5 nM | Kd (rNPR1-ANP complex [4]): 2 nM | Kd (hNPR1-ANP complex [5]): 1.5 nM

B2: YY02 (FabCys format) (Fab, V domains shown)
VH: EVQLVESGGGLVKPGGSLRLSCAASGFTFSSYSMNWVRQAPGKGLEWVSSISSSSSYIYYADSVKGRFTISRDNAKNSLYLQMNSLRAEDTAVYYCARSGYRGVYGFDYWGQGTLVTVSS
VL: DIQMTQSPSSVSASVGDRVTITCRASQGISSWLAWYQQKPGKAPKLLIYAASSLQSGVPSRFSGSGSGTDFTLTISSLQPEDFATYYCQQYYHSPLTFGQGTKVEIK
notes: Monovalent FabCys
Kd (rNPR1-ANP complex [6]): 4.4 nM | Kd (rat NPR1 (rNPR1) [7]): 280 nM | Kd (hNPR1-ANP complex [8]): 1.1 nM | Kd [9]: 45 nM

B3: ZZ13 (FabCys format) (Fab, V domains shown)
VH: EVQLVESGGGLVQPGGSLRLSCAASGFTFSRYYINWVRQAPGKGLEWVASIHQHGLETRYVESVKGRFTISRDNAKNSLYLQMNSLRAEDTAVYYCARSLRRRSTEHAGFDVWGQGTLVTVSS
VL: DIQMTQSPSSLSASVGDRVTITCRASQGISNYLAWYQQKPGKVPKLLIYAASTLQSGVPSRFSGSGSGTDFTLTISSLQPEDVATYYCQQADKFPYTFGQGTKVEIK
notes: Monovalent FabCys
Kd (rNPR1-ANP complex [10]): 1.4 nM | Kd (rat NPR1 (rNPR1) [11]): 2.3 nM | Kd (hNPR1-ANP complex [12]): 1.3 nM | Kd [13]: 9.9 nM | Kd (rNPR1-ANP complex [14]): 0.1 nM | Kd (rat NPR1 (rNPR1) [15]): 66 nM | Kd (hNPR1-ANP complex [16]): 0.14 nM

B4: YY04 (FabCys format) (Fab, V domains shown)
VH: EVQLVESGGGLVKPGGSLRLSCAASGFTFSNYWISWVRQAPGKGLEWVGRIKSKTYGGTTDYAEPVKGRFTISRDDSKNTLYLQMNSLKTEDTAVYYCAREKYSIRARGHGDYGFDVWGQGTLVTVSS
VL: DIQMTQSPSSLSASVGDRVTITCRASQGISNYLAWYQQKPGKVPKLLIYAASTLQSGVPSRFSGSGSGTDFTLTISSLQPEDVATYYCQQGYHAPFTFGQGTKVEIK
notes: Monovalent FabCys
Kd (rNPR1-ANP complex [17]): 1 nM | Kd (hNPR1-ANP complex [18]): 1.1 nM | Kd [19]: 4.9 nM | cGMP conc [nM] at 1 µM FabCys, +0.075 nM ANP [20]: 67 nM | cGMP conc [nM] at 1 µM FabCys, without ANP [20]: 18 nM | Kd (rNPR1-ANP complex [21]): 1 nM | Kd (hNPR1-ANP complex [22]): 1.1 nM | Kd [23]: 4.9 nM
